Data set [1] can be described thus: folding stability dG unfold from chymotrypsin proteolysis; higher = more stable. The gist of the method:
(§1)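 Unfolding free energy was derived, per protease or combined, against a sequence-predicted unfolded-state K50 and a shared folded-state K50, starting from K50 inferred by Bayesian fitting of sequencing counts. Digestion with trypsin and chymotrypsin was carried out on designed mini-proteins under 80 residues without cysteine in a PA-tagged cDNA display construct. Only designs with AlphaFold2 dimer inter-PAE above 15 were kept.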

Data set [2] is described as follows: folding stability dG unfold from trypsin proteolysis; higher = more stable. A digest of the protocol: as §1
A short description of data set [3]: folding stability dG unfold (combined trypsin and chymotrypsin); higher = more stable. The gist of the method:
as §1

± gives the half width of the 95% confidence interval.

Turning to “SAEERVFLVPVERRPDGSVRLRFVRPDRVVELELPAGFTVEDALQALSAHPDLRVEVLEAHPDLVLVRGSAG [r14_404_TrMRF]”, the figures for the “folding stability dG unfold” value in data set [1], in data set [2] and in data set [3] were 2.741 ± 0.023 kcal/mol, 1.824 ± 0.017 kcal/mol and 2.46 ± 0.054 kcal/mol, respectively.

“SAEEVEIEIEIVIKMSEEEAERLAKELAEELARELGAEIVDVEVEVVEVDGELYVRIRVKIRLPKEELESAG [r14_219_TrROS_Hall]”: the “folding stability dG unfold” value turned out to be 4.7 ± 0.17 kcal/mol in data set [1], 3.47 ± 0.098 kcal/mol in data set [2] and 4.23 ± 0.14 kcal/mol in data set [3].

As to “SAEIEVKPGEELEITVNGKKLRITVEKVEVRVEVKELPPPPPPEVEVYTLTRDPATDELRLERRTAEELASA [r9_881_TrROS_Hall]”, the results for the “folding stability dG unfold” value in data set [1], in data set [2] and in data set [3] were 0.352 ± 0.24 kcal/mol, 0.0576 ± 0.22 kcal/mol and 0.23 ± 0.15 kcal/mol, respectively.

Turning to “SAEIPPDLIAVILGIEPYRFGERDFLVITAAIFRPEEPDAEVTLYTIVIEGDKIVSITPSRYRVPPEALSAG [r14_651_TrMRF]”, the “folding stability dG unfold” value in data set [1] is 3.86 ± 0.047 kcal/mol; in data set [2], 2.92 ± 0.098 kcal/mol; in data set [3], 3.55 ± 0.11 kcal/mol.

Take “SAEKKVLVKVKIEVFNEDGELVEELELEVEMSAEEVKKKIKEELLKLLKEKYPDKPLTIKVEVEVKELPSAG [r14_570_TrROS_Hall]”: the entries for the “folding stability dG unfold” value in data set [1], in data set [2] and in data set [3] were 3.61 ± 0.19 kcal/mol, 4.36 ± 0.74 kcal/mol and 3.67 ± 0.23 kcal/mol, respectively.

“SAELIEALKKAGYRIKIEVEVTEVRVVRNEDGELKVEAKIKVKIEIEPLPPPPPPLSLEDLLDKNGKLVSAG [r14_569_TrROS_Hall]”: the “folding stability dG unfold” value amounted to 3.3 ± 0.13 kcal/mol in data set [1], 3.26 ± 0.41 kcal/mol in data set [2] and 2.95 ± 0.56 kcal/mol in data set [3].

Turning to “SAENGKWVEVELPIEIWMGNDQLDNFIEEARDIARKHGFEITDIPIKYEPSPDGYRRATIPVKITVPLPSAG [r14_109_TrROS]”, the results for the “folding stability dG unfold” value in data set [1], in data set [2] and in data set [3] were 1.06 ± 0.088 kcal/mol, 1.06 ± 0.04 kcal/mol and 1.13 ± 0.14 kcal/mol, respectively.

For “SAEPKRYYALVVKRPDGKWLVFYFEDVEEGRERFEEFLRKEFPEDFEVELFEVEPSEAESIEKLLEALGSAG [r14_900_TrMRF]”, the “folding stability dG unfold” value in data set [1] came out at 4.8 ± 0.091 kcal/mol; in data set [2], 3.07 ± 0.14 kcal/mol; in data set [3], 4.61 ± 0.17 kcal/mol.

Take “SAEVETVTLELELPEDGYRVTITVTYNKETGEVTVEIRIINPNGEEKTITIKVKSLEEALKKLEFKLLPSAG [r14_749_TrROS_Hall]”: the figures for the “folding stability dG unfold” value in data set [1], in data set [2] and in data set [3] were 2.45 ± 0.054 kcal/mol, 2.13 ± 0.056 kcal/mol and 2.36 ± 0.13 kcal/mol, respectively.

Consider “SAEVIEKTLTETVIGDTVVTPSVVEFPDGSVVEKVTTVSPDGTVTVTTYYFPPDGVRTFLSTTTVPLDLSAG [r14_680_JUSTAS]”, for which the “folding stability dG unfold” value in data set [1] worked out at 1.16 ± 0.07 kcal/mol; in data set [2] it was 0.585 ± 0.03 kcal/mol; in data set [3], 0.939 ± 0.07 kcal/mol.

As to “SAFKIERDPGNGQRKIKIEIPIIFPMGPEMRNMFKNMIKQWLAKHNPNVDIEIDIIPVKSPEQALEQIGSAG [r14_406_TrROS]”, the “folding stability dG unfold” value was 2.61 ± 0.3 kcal/mol in data set [1], 1.48 ± 0.15 kcal/mol in data set [2] and 1.98 ± 0.47 kcal/mol in data set [3].

Consider “SAFRFPPGQTIMIKIEWRNPGNGKKRKWSIPIRVDPDKGRVITLDMLKSFLRKWGFNPEDVKIEDITVMSAG [r14_93_TrROS]”, for which the “folding stability dG unfold” value was determined as 1.31 ± 0.069 kcal/mol in data set [1], 2.145 ± 0.013 kcal/mol in data set [2] and 1.81 ± 0.041 kcal/mol in data set [3].

As for “SAGAGKTPDGKEYIIPFTFKNENGETTPEEIEEKIKEFTAKHPEVKIKEIKAIKEGDSVKVLVVVEKPASAG [r5_688_TrMRF]”, the “folding stability dG unfold” value was 2.77 ± 0.053 kcal/mol in data set [1], 2.61 ± 0.12 kcal/mol in data set [2] and 2.74 ± 0.28 kcal/mol in data set [3].

In the case of “SAGAHTVSVHYVEPGSKKLSSVETSEITLEPGEELPLDEVAARFPSENYEVTAQEEPDAITITIYVYRGSAG [r5_269_JUSTAS]”, the “folding stability dG unfold” value in data set [1] was 0.522 ± 0.27 kcal/mol; in data set [2], 0.303 ± 0.062 kcal/mol; in data set [3], 0.547 ± 0.087 kcal/mol.

Consider “SAGAIERILEWLKDQPPGDEVPIPIRLPNGWYIKINIEYNPEENKPKIEVEYYDPDDGKPRQEQKFTIPSAG [r5_35_TrROS]”, for which the “folding stability dG unfold” value in data set [1] was determined as 0.899 ± 0.17 kcal/mol; in data set [2] it was 1.59 ± 0.077 kcal/mol; in data set [3] it was 1.31 ± 0.25 kcal/mol.

Take “SAGAKAEPGPSGRLRIYLPDEPIELDVTEDGTVTLTFPNGEKVEFPVEKEKAALVLAELNALGAVVVPQSAG [r5_753_TrMRF]”: the “folding stability dG unfold” value in data set [1] is 1.09 ± 0.055 kcal/mol; in data set [2] it was -0.367 ± 0.19 kcal/mol; in data set [3] it was 0.712 ± 0.084 kcal/mol.

Regarding “SAGAMQTVTLPTPDGRTVTLRHPGISVSVDPEKRTVTISVPSLGKVYTLTFAPDGTVAELSEEPIPELESAG [r5_342_JUSTAS]”, the results for the “folding stability dG unfold” value in data set [1], in data set [2] and in data set [3] were 3.231 ± 0.025 kcal/mol, 1.53 ± 0.03 kcal/mol and 2.82 ± 0.11 kcal/mol, respectively.

On to “SAGAPGEVTVTVVRRPRVETEEERRRRRAPPPPVVTLTLKVPPGWVVRRVAFNADGEIVSVELYRRDDLSAG [r5_750_TrROS_Hall]”, for which the figures for the “folding stability dG unfold” value in data set [1], in data set [2] and in data set [3] were 3.03 ± 0.031 kcal/mol, 1.38 ± 0.029 kcal/mol and 2.54 ± 0.06 kcal/mol, respectively.

“SAGAPSTREFEILELVPLPPGTTAEELRATLEREVELPDDSVARIRVRAVFLSPGPAFALVLYRVEVRESAG [r5_939_TrMRF]”: the “folding stability dG unfold” value in data set [1] is 3.314 ± 0.015 kcal/mol; in data set [2], 3.15 ± 0.11 kcal/mol; in data set [3], 3.22 ± 0.12 kcal/mol.

Turning to “SAGASPGVRLTERSEEVIEVEPGEKEKLKEEIKKSEKKYPGGLTEKVEYEVDPNSNKVTITITTTTGLSAGG [r19_45_JUSTAS]”, the “folding stability dG unfold” value is 0.664 ± 0.084 kcal/mol in data set [1], -0.351 ± 0.23 kcal/mol in data set [2] and 0.383 ± 0.33 kcal/mol in data set [3].

On to “SAGDADEDPVLVVFVRTEERPLVVVRRVEPDEDPEEVAKELAAEIREKLGPDVEVFVEMVRREDAEKLFSAG [r5_583_TrMRF]”, for which the “folding stability dG unfold” value in data set [1] turned out to be 2.44 ± 0.039 kcal/mol; in data set [2], 2.27 ± 0.052 kcal/mol; in data set [3] it was 2.42 ± 0.11 kcal/mol.

As to “SAGDALKDIFPGLEIEPHEKPVKVPPGKPVEFAFIIRMPDGEIMIFDMHFNPGGEVRVRVLTIKLPEKSAGG [r19_125_TrROS]”, the “folding stability dG unfold” value was found to be 4.81 ± 0.14 kcal/mol in data set [1], 2.88 ± 0.16 kcal/mol in data set [2] and 3.96 ± 0.27 kcal/mol in data set [3].

Take “SAGDDLKIKKVEIQINPEHGYISVTFRIDGYEVQIMYDVDPKNGPITMDIYYPGKPIGEFTIPLNDIKISAG [r5_415_TrROS]”: the “folding stability dG unfold” value was 3.01 ± 0.05 kcal/mol in data set [1], 1.78 ± 0.083 kcal/mol in data set [2] and 2.68 ± 0.1 kcal/mol in data set [3].

With “SAGDEALLERIRARAEAEAKAAGPDPTPLDYRVEVEPVEIDEETGTVKVRVTITAPDREVEREVTVPLVSAG [r5_53_JUSTAS]”, the “folding stability dG unfold” value in data set [1] was -0.113 ± 0.096 kcal/mol; in data set [2] it was 0.315 ± 0.051 kcal/mol; in data set [3], 0.0838 ± 0.088 kcal/mol.

As to “SAGDKKTIELWFMFKTPEEARHEADSIARRLAEEGLTIKVELKDIEPMPDPDGEKYYMFEFKVTIQLPNSAG [r5_158_TrROS]”, the “folding stability dG unfold” value in data set [1] amounted to 3.28 ± 0.12 kcal/mol; in data set [2] it was 2.55 ± 0.062 kcal/mol; in data set [3] it was 3.06 ± 0.14 kcal/mol.

With “SAGDLAEYIAETLQDHFPNMEVEVEIDGVEDGYIVIDITIYFRDMKDNENKPRWVPWEIVIPPGEPLPSAGG [r19_8_TrROS]”, the “folding stability dG unfold” value stood at 4.09 ± 0.051 kcal/mol in data set [1], 2.36 ± 0.14 kcal/mol in data set [2] and 3.38 ± 0.19 kcal/mol in data set [3].

(Values after the supplement of paper PMC12764529.)
